For data set [1], the target named is BcMCM Walker B mutant (D711A) (Bacillus cereus (integrated prophage)). Briefly: SEC. For orientation: In gel filtration, larger molecules generally elute earlier.
The target in data set [2] is BcMCM 501–1028 (helicase domain) (Bacillus cereus (integrated prophage)). The data set can be described thus: negative-stain electron microscopy.
Data set [3] concerns the target BcMCM presensor I β-hairpin mutant (R737A) (Bacillus cereus (integrated prophage)). Briefly: SEC.
Data set [4] addresses T1, BcMCM wild type (Bacillus cereus (prophage), UniProt Q81EV1 1-1028).
T1 sequence: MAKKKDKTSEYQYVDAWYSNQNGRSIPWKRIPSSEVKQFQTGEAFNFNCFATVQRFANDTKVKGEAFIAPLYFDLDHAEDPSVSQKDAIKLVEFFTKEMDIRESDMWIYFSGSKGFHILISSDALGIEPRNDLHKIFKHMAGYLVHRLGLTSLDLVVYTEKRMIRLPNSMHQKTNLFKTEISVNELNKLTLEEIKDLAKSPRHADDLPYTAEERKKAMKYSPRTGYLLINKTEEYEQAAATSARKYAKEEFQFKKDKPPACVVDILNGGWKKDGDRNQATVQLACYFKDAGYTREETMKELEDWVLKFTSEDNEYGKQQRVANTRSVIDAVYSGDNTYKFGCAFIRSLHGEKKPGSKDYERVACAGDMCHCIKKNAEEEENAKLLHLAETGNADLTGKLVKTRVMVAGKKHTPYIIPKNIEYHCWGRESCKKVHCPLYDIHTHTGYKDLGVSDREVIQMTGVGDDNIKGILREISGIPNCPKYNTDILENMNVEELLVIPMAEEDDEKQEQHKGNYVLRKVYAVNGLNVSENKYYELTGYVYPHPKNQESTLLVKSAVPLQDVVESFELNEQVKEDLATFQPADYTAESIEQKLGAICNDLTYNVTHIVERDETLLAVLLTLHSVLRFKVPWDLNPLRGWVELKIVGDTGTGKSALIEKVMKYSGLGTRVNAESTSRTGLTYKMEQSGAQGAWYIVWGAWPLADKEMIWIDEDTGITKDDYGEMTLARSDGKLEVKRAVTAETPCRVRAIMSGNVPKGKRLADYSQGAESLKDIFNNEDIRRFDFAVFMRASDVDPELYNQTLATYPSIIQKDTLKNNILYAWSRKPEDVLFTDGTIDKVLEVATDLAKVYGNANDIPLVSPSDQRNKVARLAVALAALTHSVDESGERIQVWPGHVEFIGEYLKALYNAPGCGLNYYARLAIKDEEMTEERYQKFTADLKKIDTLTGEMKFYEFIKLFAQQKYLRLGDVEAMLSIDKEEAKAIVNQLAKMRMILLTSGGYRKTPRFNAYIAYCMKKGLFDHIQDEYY
Briefly: pull-down.

Data set [5] deals with T1, BcMCM wild type. The data set can be described thus: EMSA. On the technique in general: In EMSA bound probe runs differently from free probe, usually more slowly.

Take BcMCM Walker B mutant (D711A) (enzyme): the stoichiometry N in data set [1] is 6.

As to “BcMCM 501–1028 (helicase domain) (domain or fragment)”, the stoichiometry N in data set [2] worked out at 6.

For “BcMCM presensor I β-hairpin mutant (R737A) (enzyme)”, the stoichiometry N in data set [3] was 6.

B1: biotin-EcoRI-(dT)50 tailed duplex (mixed)
DNA 1: TCCCCCGAATTCCCCCCTTTTTTTTTTTTTTTTTTTTTTTTTTTTTTTTTTTTTTTTTTTTTTTTTT
DNA 2: GGGGGGAATTCGGGGG
modifications: 5' biotin on strand 1
As to B1, the binding result with BcMCM wild type [4] was “binds”.

B2: bubble (dsDNA)
DNA 1: ACTGGCCGTCGTTTTACAACGTCGTGACTGGGAAAACCCTGGCGTTACCCAACTTAATCG
DNA 2: CGATTAAGTTGGGTAACGGGTCCCAAAAGGGTCAGTGCTGCATGTAAAACGACGGCCAGT
As for B2, the binding result with BcMCM wild type [5] is “binds”.

B3: template-primer, 3'-end oligo (mixed)
DNA 1: ACTGGCCGTCGTTTTACAACGTCGTGACTGGGAAAACCCTGGCGTTACCCAACTTAATCG
DNA 2: CGATTAAGTTGGGTAACGCC
In the case of B3, the binding result with BcMCM wild type [5] is recorded as “binds”.

B4: template-primer, 5'-end oligo (mixed)
DNA 1: ACTGGCCGTCGTTTTACAACGTCGTGACTGGGAAAACCCTGGCGTTACCCAACTTAATCG
DNA 2: GTTGTAAAACGACGGCCAGT
Regarding B4, the binding result with BcMCM wild type [5] is listed as “binds”.

For orientation: stoichiometry N means the number of molecules, sites or subunits per partner or assembly.
